Data published in patent US20080058263A1 (published 2008).

T1: VEGFR-3-Fc (UniProt P35916 25-328)
T1 construct: domain: first three Ig domains; conditioned supernatant of 293T cells; also called VEGFR-3-Fc fusion protein; not shown: Fc fragment of the pIg vector
T1 sequence (looked up): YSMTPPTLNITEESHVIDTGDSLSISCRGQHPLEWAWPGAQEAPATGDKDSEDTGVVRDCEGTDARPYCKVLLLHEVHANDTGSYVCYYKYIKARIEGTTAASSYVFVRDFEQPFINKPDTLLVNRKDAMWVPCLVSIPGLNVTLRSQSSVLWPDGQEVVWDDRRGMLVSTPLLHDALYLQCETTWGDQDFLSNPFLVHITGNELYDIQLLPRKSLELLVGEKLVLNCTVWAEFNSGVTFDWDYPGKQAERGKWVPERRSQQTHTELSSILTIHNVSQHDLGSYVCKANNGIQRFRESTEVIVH


Columns and labels:
Assay in all cases: receptor-Fc IP
[1] = biological target: T2, VEGFR-1-Fc (UniProt P17948 27-338)
T2 construct: domain: first three Ig domains; expressed in Drosophila S2 cells, purified on Protein A sepharose; also called VEGFR-1-Fc fusion protein; not shown: Fc fragment from the Signal-pIgPlus vector
In short: (§1)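 Binding of ligand from sample supernatant measured by pentahistidine-antibody immunoprecipitation. IP mix: PBS with 1.5% BSA, 0.06% Tween 20, 3 μg/ml heparin and 400 ng/ml fusion protein, added 1:2 to sample supernatant.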

[2] = biological target: T3, VEGFR-2-Fc (UniProt P35968 20-322)
T3 construct: domain: first 3 Ig domains; conditioned supernatant of 293T cells; also called VEGFR-2-Fc fusion protein; not shown: Fc fragment of the pIg vector
In short: as §1

[3] = biological target: T1, VEGFR-3-Fc
In short: as §1

T3 sequence (P35968 20-322): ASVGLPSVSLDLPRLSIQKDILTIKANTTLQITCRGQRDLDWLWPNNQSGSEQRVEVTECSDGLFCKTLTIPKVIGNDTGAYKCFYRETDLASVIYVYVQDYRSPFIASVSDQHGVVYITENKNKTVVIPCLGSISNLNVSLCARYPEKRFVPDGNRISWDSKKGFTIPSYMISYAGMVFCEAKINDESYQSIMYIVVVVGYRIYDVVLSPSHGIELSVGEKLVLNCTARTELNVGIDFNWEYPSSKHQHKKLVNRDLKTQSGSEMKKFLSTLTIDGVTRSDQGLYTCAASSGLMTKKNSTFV
T2 sequence (P17948 27-338): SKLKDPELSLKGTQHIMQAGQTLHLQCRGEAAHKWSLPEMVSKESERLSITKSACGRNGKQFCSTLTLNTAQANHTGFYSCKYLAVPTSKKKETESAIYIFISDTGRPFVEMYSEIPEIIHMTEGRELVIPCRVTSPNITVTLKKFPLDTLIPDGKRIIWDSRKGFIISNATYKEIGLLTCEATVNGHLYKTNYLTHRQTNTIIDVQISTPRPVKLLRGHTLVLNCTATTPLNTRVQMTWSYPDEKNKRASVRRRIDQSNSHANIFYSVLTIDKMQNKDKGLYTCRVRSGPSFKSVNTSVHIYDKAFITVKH

Row | binding result [1] | binding result [2] | binding result [3] | Binder
1 | no binding | no binding | no binding | 42-6 (ligand) AHYNTEILKFMDVYQRSYCHPREVCIDVGKEFGVATNTFFKPPCVSVYRCGGCCNDEGLECMNTSTSYLSKTLFEIKPHQGQHIGEMSFANHTSCRCMSKLD
2 | no binding | no binding | no binding | 42-8 (ligand) AHYNTEILKFMDVYQRSYCHPREVCIDVGKEFGVATNTFFKPPCVSVYRCGGCCNSEGLQCMNTSTSYLSKTLFEIKPHQGQHIGEMSFANHTSCRCMSKLD
3 | no binding | no binding | no binding | 42-1 (ligand) AHYNTEILKFMDVYQRSYCHPREVCIDVGKEFGVATNTFFKPPCVSVYRCGGCCNDEGLECVPTEESNITMQIMRIKPHQGQHIGEMSFLQHNKCECRPKKD
4 | no binding | no binding | no binding | 41-9 (ligand) AHYNTEILKFMDVYQRSYCHPREVCIDVGKEYPDEIEYIFKPSCVPLMRCGGCCNDEGLECVPTEESNITMQIMRITVPLSQGPKPVTISFLQHNKCECRPKKD
5 | no binding | no binding | no binding | 41-11 (ligand) AHYNTEILKFMDVYQRSYCHPREVCIDVGKEYPDEIEYIFKPSCVPLMRCGGCCNSEGLQCVPTEESNITMQIMRITVPLSQGPKPVTISFLQHNKCECRPKKD
6 | no binding | no binding | no binding | 43-9 (ligand) AHYNTEILKFMDVYQRSYCHPREVCIDVGKEYPDEIEYIFKPPCVSVYRCGGCCNDEGLECVPTEESNITMQIMRITVPLSQGPKPVTISFLQHNKCECRPKKD
7 | no binding | no binding | no binding | 43-11 (ligand) AHYNTEILKFMDVYQRSYCHPREVCIDVGKEYPDEIEYIFKPPCVSVYRCGGCCNSEGLQCVPTEESNITMQIMRITVPLSQGPKPVTISFLQHNKCECRPKKD
8 | no binding | no binding | no binding | 34-11 (ligand) GQNHHEVVKSIDNEWRKTQCMPIETLVDIFQEFGVATNTFFKPSCVPLMRCGGCCNSEGLQCVPTEESNITMQIMRITVPLSQGPKPVTISFLQHNKCECRPKKD
9 | no binding | no binding | no binding | 34-13 (ligand) GQNHHEVVKSIDNEWRKTQCMPIETLVDIFQEFGVATNTFFKPSCVPLMRCGGCCNDEGLECVPTEESNITMQIMRITVPLSQGPKPVTISFANHTSCRCMSKLD
10 | no binding | no binding | no binding | 34-15 (ligand) GQNHHEVVKSIDNEWRKTQCMPIETLVDIFQEFGVATNTFFKPSCVPLMRCGGCCNSEGLQCVPTEESNITMQIMRITVPLSQGPKPVTISFANHTSCRCMSKLD
11 | no binding | no binding | no binding | 21-4 (ligand) AHYNTEILKSIDNEWRKTQCMPREVCIDVGKEYPDEIEYIFKPSCVPLMRCGGCCNSEGLQCMNTSTSYLSKTLFEIKPHQGQHIGEMSFLQHNKCECRPKKD
12 | no binding | no binding | no binding | 41-6 (ligand) AHYNTEILKFMDVYQRSYCHPREVCIDVGKEYPDEIEYIFKPSCVPLMRCGGCCNDEGLECMNTSTSYLSKTLFEIKPHQGQHIGEMSFANHTSCRCMSKLD
13 | no binding | no binding | no binding | 44-2 (ligand) AHYNTEILKFMDVYQRSYCHPREVCIDVGKEFGVATNTFFKPSCVPLMRCGGCCNDEGLECMNTSTSYLSKTLFEIKPHQGQHIGEMSFLQHNKCECRPKKD

More lines, now with the values behind:

Row | Binder | binding result [1] | binding result [2] | binding result [3]
14 | 41-14 (ligand) AHYNTEILKFMDVYQRSYCHPREVCIDVGKEYPDEIEYIFKPSCVPLMRCGGCCNDEGLECMNTSTSYLSKTLFEITVPLSQGPKPVTISFANHTSCRCMSKLD | no binding | no binding | no binding
15 | 43-14 (ligand) AHYNTEILKFMDVYQRSYCHPREVCIDVGKEYPDEIEYIFKPPCVSVYRCGGCCNDEGLECMNTSTSYLSKTLFEITVPLSQGPKPVTISFANHTSCRCMSKLD | no binding | no binding | no binding
16 | 43-16 (ligand) AHYNTEILKFMDVYQRSYCHPREVCIDVGKEYPDEIEYIFKPPCVSVYRCGGCCNSEGLQCMNTSTSYLSKTLFEITVPLSQGPKPVTISFANHTSCRCMSKLD | no binding | no binding | no binding
17 | 41-16 (ligand) AHYNTEILKFMDVYQRSYCHPREVCIDVGKEYPDEIEYIFKPSCVPLMRCGGCCNSEGLQCMNTSTSYLSKTLFEITVPLSQGPKPVTISFANHTSCRCMSKLD | no binding | no binding | no binding
18 | 42-10 (ligand) AHYNTEILKFMDVYQRSYCHPREVCIDVGKEFGVATNTFFKPPCVSVYRCGGCCNDEGLECMNTSTSYLSKTLFEITVPLSQGPKPVTISFLQHNKCECRPKKD | no binding | no binding | no binding
19 | 42-12 (ligand) AHYNTEILKFMDVYQRSYCHPREVCIDVGKEFGVATNTFFKPPCVSVYRCGGCCNSEGLQCMNTSTSYLSKTLFEITVPLSQGPKPVTISFLQHNKCECRPKKD | no binding | no binding | no binding
20 | 42-9 (ligand) AHYNTEILKFMDVYQRSYCHPREVCIDVGKEFGVATNTFFKPPCVSVYRCGGCCNDEGLECVPTEESNITMQIMRITVPLSQGPKPVTISFLQHNKCECRPKKD | no binding | no binding | no binding
21 | 42-11 (ligand) AHYNTEILKFMDVYQRSYCHPREVCIDVGKEFGVATNTFFKPPCVSVYRCGGCCNSEGLQCVPTEESNITMQIMRITVPLSQGPKPVTISFLQHNKCECRPKKD | no binding | no binding | no binding
22 | 42-13 (ligand) AHYNTEILKFMDVYQRSYCHPREVCIDVGKEFGVATNTFFKPPCVSVYRCGGCCNDEGLECVPTEESNITMQIMRITVPLSQGPKPVTISFANHTSCRCMSKLD | no binding | no binding | no binding
23 | 42-15 (ligand) AHYNTEILKFMDVYQRSYCHPREVCIDVGKEFGVATNTFFKPPCVSVYRCGGCCNSEGLQCVPTEESNITMQIMRITVPLSQGPKPVTISFANHTSCRCMSKLD | no binding | no binding | no binding
24 | 21-3 (ligand) AHYNTEILKSIDNEWRKTQCMPREVCIDVGKEYPDEIEYIFKPSCVPLMRCGGCCNSEGLQCVPTEESNITMQIMRIKPHQGQHIGEMSFLQHNKCECRPKKD | no binding | no binding | no binding
25 | 34-14 (ligand) GQNHHEVVKSIDNEWRKTQCMPIETLVDIFQEFGVATNTFFKPSCVPLMRCGGCCNDEGLECMNTSTSYLSKTLFEITVPLSQGPKPVTISFANHTSCRCMSKLD | no binding | no binding | no binding
